Assays:
[1] = target: T1, recombinant human CYP1A1 expressed in HEK cells (human (H. sapiens), UniProt P04798 1-512); test: immunoblot, HEK cell lysate with recombinant human CYP1A1
T1 construct: Bought over-expression lysate; also called OriGene LC400170
T1 sequence (looked up): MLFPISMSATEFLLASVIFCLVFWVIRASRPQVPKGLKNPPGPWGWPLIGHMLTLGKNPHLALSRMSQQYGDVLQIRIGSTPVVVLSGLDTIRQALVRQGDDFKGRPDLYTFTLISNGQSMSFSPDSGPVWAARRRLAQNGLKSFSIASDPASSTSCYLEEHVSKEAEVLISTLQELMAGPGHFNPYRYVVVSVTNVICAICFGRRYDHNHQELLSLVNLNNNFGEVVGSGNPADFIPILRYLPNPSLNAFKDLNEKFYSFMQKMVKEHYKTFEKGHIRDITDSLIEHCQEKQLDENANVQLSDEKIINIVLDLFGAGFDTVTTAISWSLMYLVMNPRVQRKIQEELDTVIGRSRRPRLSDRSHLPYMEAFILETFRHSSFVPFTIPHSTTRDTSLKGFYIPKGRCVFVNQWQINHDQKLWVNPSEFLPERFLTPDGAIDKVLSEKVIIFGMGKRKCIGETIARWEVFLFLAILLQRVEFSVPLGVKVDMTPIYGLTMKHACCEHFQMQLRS
Experimental: HEK cells were grown in media only as a cell-specific source of control cell lysate for comparison with over-expressed recombinant CYP1A1 in HEK cell lysates from the supplier.
Media was then removed from cells, replaced with 0.25% trypsin, and incubated until cells lifted from attachment. Cells were then pelleted by centrifugation to obtain a dry pellet, covered with ice-cold 300-400 μL RIPA buffer (Thermo Fisher, Waltham, MA, USA) supplemented with 2×HALT protease inhibitor cocktail (Pierce), followed by resuspension using a vortex device and placement on ice for 20 min. Suspensions were then sonicated, transferred to 1.5 mL tubes, and centrifuged 12,000×g for 20 min. Overlying supernatants were removed and transferred to clean tubes and the protein content quantified. Lysate protein concentration for each cell line, rat S9 fractions, and rainbow trout microsomes were matched between treated and controls, then boiled in reducing sample buffer for 7 min. Forty micrograms of each sample was then subjected to SDS-PAGE using 10-lane, 50 μL well capacity 4-20% pre-cast gels (Biorad, Richmond, CA, USA) and immunoblotting using standard procedures incorporating PDVF membranes. Immunoblots were blocked overnight with 10% horse serum (Gibco) in 0.01 M phosphate buffered saline (PBS) containing 0.05% tween twenty (PBS-T). […]

rat CYP1A = target: T2, rat CYP1A (rat (R. norvegicus), UniProt P00185 2-524); test: immunoblot, rat liver S9 fractions
T2 construct: Endogenous protein in liver S9 fraction, immunoblot; also called Rat liver S9 fraction, Arochlor-1254-induced
T2 sequence (looked up): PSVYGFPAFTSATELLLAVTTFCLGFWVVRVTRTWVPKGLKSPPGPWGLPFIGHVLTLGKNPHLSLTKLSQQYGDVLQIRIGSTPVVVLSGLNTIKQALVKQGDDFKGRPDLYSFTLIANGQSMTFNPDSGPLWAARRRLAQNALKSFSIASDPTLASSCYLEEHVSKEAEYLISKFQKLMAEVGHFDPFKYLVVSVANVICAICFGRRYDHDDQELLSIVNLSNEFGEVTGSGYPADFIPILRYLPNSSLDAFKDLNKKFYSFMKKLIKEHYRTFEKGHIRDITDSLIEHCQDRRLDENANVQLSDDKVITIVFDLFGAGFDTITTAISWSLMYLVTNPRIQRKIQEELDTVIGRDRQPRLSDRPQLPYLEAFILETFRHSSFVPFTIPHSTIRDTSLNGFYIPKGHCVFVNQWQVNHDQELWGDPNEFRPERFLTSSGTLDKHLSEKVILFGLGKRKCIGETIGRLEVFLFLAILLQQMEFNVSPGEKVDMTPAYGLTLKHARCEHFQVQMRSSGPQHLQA
Experimental: Lysate protein concentration for each cell line, rat S9 fractions, and rainbow trout microsomes were matched between treated and controls, then boiled in reducing sample buffer for 7 min. Forty micrograms of each sample was then subjected to SDS-PAGE using 10-lane, 50 μL well capacity 4-20% pre-cast gels (Biorad, Richmond, CA, USA) and immunoblotting using standard procedures incorporating PDVF membranes. Immunoblots were blocked overnight with 10% horse serum (Gibco) in 0.01 M phosphate buffered saline (PBS) containing 0.05% tween twenty (PBS-T). Membranes were washed once for 10 min with PBS-T, then probed for 2 h at room temperature (RT) with mAbs as confluent supernatants diluted 1:10 in PBS-T containing a final nominal concentration of 3 ug/mL antibody. […] After 3×washes with PBS-T, membranes were incubated with NBT-BCIP (Fisher Scientific, Pittsburgh, PA, USA) as the AP substrate and activity was visualized as dark blue banding of CYP1A at the expected size of approximately 55 kDa.

mouse CYP1A = target: T3, mouse CYP1A (mouse (M. musculus), UniProt P00184 1-524); test: IHC, liver of PCB-126 treated mouse
T3 construct: Endogenous protein in Hepa1c1c7 cell lysate (immunoblot) and fixed liver (IHC); also called HEPA1C1C7; mouse hepatoma cell line CYP1A
T3 sequence (looked up): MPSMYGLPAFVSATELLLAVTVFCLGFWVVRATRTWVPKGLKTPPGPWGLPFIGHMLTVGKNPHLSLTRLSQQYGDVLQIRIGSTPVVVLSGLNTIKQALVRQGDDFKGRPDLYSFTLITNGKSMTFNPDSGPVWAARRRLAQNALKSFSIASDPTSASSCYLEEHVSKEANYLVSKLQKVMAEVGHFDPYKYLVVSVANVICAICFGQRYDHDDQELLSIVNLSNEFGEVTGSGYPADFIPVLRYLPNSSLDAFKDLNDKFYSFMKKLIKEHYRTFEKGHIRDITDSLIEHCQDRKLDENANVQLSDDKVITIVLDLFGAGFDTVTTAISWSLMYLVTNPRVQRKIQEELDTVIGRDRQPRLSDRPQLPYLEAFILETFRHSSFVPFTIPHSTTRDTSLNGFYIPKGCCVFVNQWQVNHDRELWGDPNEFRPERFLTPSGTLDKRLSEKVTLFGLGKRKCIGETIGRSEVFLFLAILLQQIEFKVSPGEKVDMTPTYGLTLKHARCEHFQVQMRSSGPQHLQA
Experimental: Subsequently, slides were immersed in pH 9 Tris-EDTA buffer while heating by microwave on 100% power for 5 min followed by cooling for 5 min, followed by a final 5 min 100% power, then a final 20 min cool-down period in the container at room temperature. After antigen retrieval, tissues on slides were encircled with a Liquid Blocker Super mini pen to isolate tissue slices. Thus, each slide was divided into sections where one section can act as a reagent control by withholding a primary antibody. Additional screening assays included isotype controls. Once slides were divided, all sections were treated to quench endogenous peroxidase activity for 30 min using 3% H₂O₂ in water. […] After blocking, avidin-then biotin-blocking steps (15 min each) were conducted to allow specificity to target molecules only for the avidin-biotin binding. Next, the antibody, as a hybridoma supernatant diluted 1:10 in PBS with 0.5% FBS, was added dropwise to the slides and incubated overnight at 4° C. or for 2 h at RT. After incubation, the slides were washed prior to addition of the secondary (biotinylated) antibody for a 30 min incubation at RT. After washing, Vectastain ABC reagent was added for 30 min prior to staining.

Measured: binding result

B1: mAb CRC4 (antibody, mouse IgG1, kappa, V domains shown)
VH: QVTLKESGPGILQPSQTLSLTCSFSGFSLSTSGMGVNWIRKPSGKGLEWLAHIFWDDDKRYNPSLKSRLTISKDTSRNQVFLMITSVDTADTATYYCASLAMDYWGQGTSVTVSS
VL: DIVMTQGASSVTVTPGESVSISCRSSKSLLHSNGRTFLYWFLQRPGQSPQLLIYRMSNLASGVPDRVSGSGSGTAFTLRISRVEAEDVGVYYCMQHLEYPFTFGGGTRLELKR
notes: Mouse IgG1 kappa from a hybridoma, used as confluent hybridoma supernatant (nominally 3 ug/mL after 1:10 dilution); also called monoclonal antibody CRC4; CRC4_1
binds: all assays above

From patent publication US20240247077A1 (CLEMSON UNIVERSITY RESEARCH FOUNDATION, published 2024)
